Reference: paper PMC11887224

Molecular target: Trop-2 (recombinant, His-tagged) (UniProt P09758 27-274)
Test: SPR

Trop-2 (recombinant, His-tagged), sequence (P09758 27-274): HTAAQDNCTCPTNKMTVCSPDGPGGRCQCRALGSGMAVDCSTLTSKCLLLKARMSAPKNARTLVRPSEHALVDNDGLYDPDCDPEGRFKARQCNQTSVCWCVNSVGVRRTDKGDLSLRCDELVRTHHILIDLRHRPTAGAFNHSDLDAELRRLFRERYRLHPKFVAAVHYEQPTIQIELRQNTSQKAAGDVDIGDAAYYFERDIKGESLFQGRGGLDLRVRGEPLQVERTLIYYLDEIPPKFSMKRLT

B1: TRPFL (structured_DNA)
DNA: CTACGGTGCCTTGAAGTGACTCGTTCCGTCCCTGGCCGCTCCTACTATCGATGTGTCATAGCAGGTCACTTCCAGG
B1 showed a Kd of 110 nM.
